Target: recombinant human IL-18 (human) (UniProt Q14116)
Assay: cell-based or functional assay

Sequence of recombinant human IL-18 (human) (Q14116 37-193 limits assumed): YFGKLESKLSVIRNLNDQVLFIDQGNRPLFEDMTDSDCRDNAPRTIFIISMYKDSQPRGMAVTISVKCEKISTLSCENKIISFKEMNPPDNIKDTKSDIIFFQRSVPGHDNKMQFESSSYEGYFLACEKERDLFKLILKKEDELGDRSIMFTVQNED
Sequence of hIL18BPa (1-168).TG.hFc (O95998 other isoform, or with tags, fused parts or gaps): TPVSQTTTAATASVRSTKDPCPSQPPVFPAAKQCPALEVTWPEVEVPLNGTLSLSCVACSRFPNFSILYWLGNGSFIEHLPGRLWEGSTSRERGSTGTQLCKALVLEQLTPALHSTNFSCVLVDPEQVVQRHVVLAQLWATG
Sequence of hIL18BPa (1-192).His (O95998 31-194): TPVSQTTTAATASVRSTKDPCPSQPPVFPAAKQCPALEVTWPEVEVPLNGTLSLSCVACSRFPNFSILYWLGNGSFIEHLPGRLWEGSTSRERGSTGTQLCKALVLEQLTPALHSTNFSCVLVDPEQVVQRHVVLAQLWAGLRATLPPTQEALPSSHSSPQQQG
Sequence of hIL18BPa (58-192).TG.his (O95998 other isoform, or with tags, fused parts or gaps): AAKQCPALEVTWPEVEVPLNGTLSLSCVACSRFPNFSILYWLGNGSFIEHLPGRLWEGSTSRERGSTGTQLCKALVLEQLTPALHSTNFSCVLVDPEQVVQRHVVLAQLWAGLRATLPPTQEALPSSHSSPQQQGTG
Sequence of hIL18BPa (64-192).TG.hFc (O95998 other isoform, or with tags, fused parts or gaps): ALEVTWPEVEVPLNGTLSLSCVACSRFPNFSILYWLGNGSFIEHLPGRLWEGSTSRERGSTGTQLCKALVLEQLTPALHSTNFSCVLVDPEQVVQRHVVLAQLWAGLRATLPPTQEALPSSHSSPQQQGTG

Substance | IC50 (M), HEK293/NFkB-luciferase bioassay
hIL18BPa(58-192)(C62S, C129S, C148S).TG.hFc (from UniProt O95998 60-194) (Fc fusion) | 6.7e-09 M
hIL18BPa (58-192) (C129E).TG.hFc (from UniProt O95998 60-194) (Fc fusion) | 5.15e-10 M
hFc.TG.hIL18BPa (58-192) (C129S). (from UniProt O95998 60-194) (Fc fusion) | 1.51e-10 M
hIL18BPa (58-192)(C87S, C129S).TG.hFc (from UniProt O95998 60-194) (Fc fusion) | 7.5e-09 M
hIL18BPa (1-192).His (from UniProt O95998 31-194) (receptor) | 2.1e-10 M
hIL18BPa (1-192) (C84S).TG.hFc (from UniProt O95998 31-194) (Fc fusion) | 2.6e-05 M
hIL18BPa (1-192) (C129S).hFc (from UniProt O95998 31-194) (Fc fusion) | 2.05e-10 M
hIL18BPa (58-192) (C129D).TG.hFc (from UniProt O95998 60-194) (Fc fusion) | 2.98e-09 M
hIL18BPa (58-192) (C62S, C87S, C129S).TG.hFc (from UniProt O95998 60-194) (Fc fusion) | 7.56e-09 M
hIL18Rβ.hIL18BPa (1-192) (C49S, C129S).hFc (Fc fusion) | 1.38e-09 M
hIL18BPa (58-192)(C84S).TG.hFc (from UniProt O95998 60-194) (Fc fusion) | 7.38e-09 M
hIL18BPa (64-192).TG.hFc (from UniProt O95998 66-194) (Fc fusion) | 7e-09 M

Results, then the substance that gave them:

IC50 (M), HEK293/NFkB-luciferase bioassay | Substance
9e-09 M | hIL18BPa (58-192)(C62S, C129S).TG.hFc (from UniProt O95998 60-194) (Fc fusion)
2.3e-09 M | hIL18Rβ.SG.hIL18BPa (58-192).TG.hFc (Fc fusion)
7.42e-11 M | hIL18BPa (58-192) (C129K).TG.hFc (from UniProt O95998 60-194) (Fc fusion)
7.3e-09 M | hIL18BPa (58-192) (C129S, C148S).TG.hFc (from UniProt O95998 60-194) (Fc fusion)
4.1e-10 M | hIL18BPa (58-192).TG.his (from UniProt O95998 60-194) (receptor)
4e-11 M | hIL18BPa (58-192) (C129S).biot.His (from UniProt O95998 60-194) (receptor)
8.44e-11 M | hIL18BPa (58-192) (C129H).TG..hFc (from UniProt O95998 60-194) (Fc fusion)
1.75e-09 M | hIL18BPa (1-168).TG.hFc (from UniProt O95998 31-170) (Fc fusion)
2.06e-10 M | hIL18BPa (1-192) (C49S, C129S).hIL18Rβ.hFc (Fc fusion)
9.7e-09 M | hIL18BPa (58-192)(C87S, C129S, C148S).TG.hFc (from UniProt O95998 60-194) (Fc fusion)
